# Assay: soluble on expression in E. coli; label from the status in PepcDB or PDB records
row,Sequence,soluble on expression in E. coli
1,MDMNSFSPMMPTSPLSMINQIKFEDEPDLKDLFITVDEPESHVTTIETFITYRIITKTTRGEFDSSEFEVRRRYQDFLWLKGKLEEAHPTLIIPPLPEKFIVKGMVERFNDDFIETRRKALHKFLNRIADHPTLTFNEDFKIFLTAQAWELSSHKKQGPGLLSRMGQTVRAVASSMRGVKNRPEEFMEMNNFIELFSQRINLIDKISQRIYKEEREYFDEMKEYGPIHILWSASEEDLVDTLKDVASCIDRCCKATEKRMSGLSEALLPVVHEYVLYSEMLMGVMKRRDQIQAELDSKVEVLTYKKADTDLLPEEIGKLEDKVECANNALKADWERWKQNMQNDIKLAFTDMAEENIHYYEQCLATWESFLTSQTNLHLEEASEDKP,soluble
2,MEEHPRAWIISVGNELLIGRTINTNAAWLGSRLTLLGFEVERVVTVPDRVEDIAEEVGRALGRARVVITTGGLGPTYDDVTLQGVAMALGRGLKLHPGALEMVRRFYSKRGLGLTEDRVKMAMLPDGAEPLENPVGAAPGAVVEARGSLVASLPGVPSEMEAMFEKALRPLLEEIAPPGAVVECGIAVVGVPESSLAPYIKEASRVSPRVYVKSHPQGSEIGKPLVRVRVLARASTLEEARAEALKALEKVRRGVEELGGSISEEDSC,soluble
3,MGSDKIHHHHHHMANALGLDFGTTNTVLAQSIDETTTHSVQFTSMAGTTDSMRTALSFMKDAQLGARALKVEAGQAAIRQFIDNPGDCRFLQSIKTFAASALFQGTLVHARRFQFEDLMEVFLKRLETYAGDGWPATASRIVAGRPVHFAGASPDPELAMRRYNEALTRLGFPEIHYVYEPVAAAFYFAQHLTTDATVLVADFGGGTTDYSLIRFERKAGVLSAVPVGYSGVGLAGDQFDARIIEHLVAPEIGKGSQFKSFDKILDIPSNYYTSFSRWNQLSVFKSSKEFADLKQLVRQSLAPDKLELFIDLVEHDEGYPLYQAVSSTKMALSAADEAEFNFSPLGAAGRKTVKRQDFESWIADDLTRIESALDDVLTRTNTEAGAVDKVFLTGGTSFVPAVRRIFTERFSQDRIESGGEMVSIAHGLALIGDRDDIALWTA,not soluble
4,MGSDKIHHHHHHMPAMQHTQPSRPQLVYLAFGPATYHQEACFSIVSALAQLGSAAGEAMDIQVYTDNAQPYARLPVTVHLLDEATRQAWNAPHGYHFRSKHVLLRQVLQQHPLAVLIDTDTFFRTSPLHLFARVAPNRLLCNAIGTRYGADQKCLLYKNLLAILESRGLADCQMPLVNSGVIGLTAENCDTLDRSIAMMDEFYPLAREAYTLEEFCLAVAAYRNLELAECTDVIHHYWSRKAQFRAKIQAWLRKHEHDPLSPPALADVALVNDQLPRPPTLHRLGYKALSLTLPSHERQFARELLYGCYPYPNEFDRACASAWWDKALENLNDRYGHVEPERLRQCLRHPGLRLSLGERRKDIEAHLLRSTQA,not soluble
5,MNNKLIYRSVRFATHNSQLLLPPLVLYRRILRQHKLLPGPQREMGDQYVRNEFKLHKDIDNPLHIVGFLASWQDYLHMISNGKWKDATLSSETLEKLSPEQTVQLYELMKETQKLHQDNEIESSKDVKRNNKD,not soluble
6,MTEKGRAIEEESFRIVDQEAGPHGFSPLEWPVVRRMIHATADFEYKALTRFSQGAVEAGLKAIQAGARILVDARMIACGLNPERLRLFGNEVVELLAHPEVVARAKATGGTRAEAAVAYAWEKGLLDGAIVGVGNAPTFLLALVEAIRQGARPALVLGMPVGFVNVLEAKRALMEAPVPWIVTEGRKGGSTLVVAALHALIRLAADGGVDTSRAYREG,soluble
7,MRTNAFEAVARYVYPSLRRRLVEILRERGLTQIQIAELLHITQSAVSRYLRMNRGALIEVEKFQDIDEKLKGLADTIVREKPDEYYIHGELVKIAVEMLGKGYVCSFHSKVDPEIDPKLCRICIETFGLEHHHHHH,soluble
8,MRIHSAGHSLPAPGPSVETTEKAVQSSSAQNPASCSSQTERPEAGSTQVRPNYPYSSVKTRLPPVSSTGQAISDTPSSLPGYLLLRRLDRRPLDEDSIKALVPADEALREARRALPFGRGNIDVDAQRTHLQSGARAVAAKRLRKDAERAGHEPMPENDEMNWHVLVAMSGQVFGAGNCGEHARIASFAYGALAQESGRSPREKIHLAEQPGKDHVWAETDNSSAGSSPIVMDPWSNGAAILAEDSRFAKDRSAVERTYSFTLAMAAEAGKVARETAENVLTHTTSRLQKRLADQLPNVSPLEGGRYQPEKSVLDEAFARRVSDKLNSDDPRRALQMEIEAVGVAMSLGAEGVKTVARQAPKVVRQARSVASSKGMPPRR,not soluble
9,MRRVQSNTLDVGIDVHLKNWSTAILSKHSVLRRFLQVDCEGPTLISYIVAKHLAHASRGTISPYRTNGSAYGGFAIYMYLLIKMR,not soluble
10,MLTPMFCLAHISDMHLSPLPKPSFFELFGKRLTGYLNWQKKRKGQMATNTLETLIEALKKKNPDHLVISGDLVNLALDKEFEQARNWLLNQGQPQNISLTFGNHDAYVRGAFQKACTLFQPWITGDFPQKNAPPFPYIRIRKNVAIIGASSAIATPPFQASGYFGKMQAQALSQLLNEAARRNLFRVIMIHHPPFHHATSWHKKLWGIERFLEVIKHHGCELILHGHTHLPTLNIIKGKMGKIPIVGVASAAQAFGDTPPPAGFNFFSIEQFNQQWHCQLQRYSLINQNNEVACTETIDLLEHHHHHH,not soluble
11,MSNEPESTQHKSALQGLKGYLSSQILGQEKLVDRLLIALLADGHLLVEGAPGLAKTKAIKDLAEGLEAEFHRIQFTPDLLPADITGTEIYRPETGTFVFQQGPIFHHLVLADEINRAPAKVQSALLEAMAERQVSVGRSTYDLPQLFLVMATQNPIEQEGTYPLPEAQLDRFLMHVKIGYPEASVERRILQQARGEALNGEARPERRVTQETIFAARQEILGLYMADAVEEYLVQLIMATRTPAKHDAELAEWISYGASPRGSIALDRCARAHAWLGGRDFVSPEDIQAVLFDVLRHRLILTFEAEAAGIDQDRVVQRILDVVAVALEHHHHHH,soluble
12,MTYLLLDYFDEKFPDEKAVKEMKPFRRHRWFFKEGTTNYSHSERNKLPEGAAYAGHRTPLISGECKVYGCWPNGYDNVGEEEWAKIPTDARQKFKAALNDTAEIVVSGIECRRSFQYIDDKLLSAMDNYSELEKLPVAYSFSATKFYPSLIPFLETRWTATKLDWKNHGQNNLDLSRTHLREITLDGEGLKSVSLPESCRTISFSSTLSPELKVYSPDGGSNLTLKIELEADHVPDVGLPQLEILVLDRAVKLDLLPVTNLYPNLYYLRICGKPGYLSNISSLRNLKTLEVLSLEEIFGFTAEEFPTPGTCPLLNTLWMESIPEEAGKQIKKKYKGKITELDIRKLRKPEWLAENLDNPLRHWDGSEFVPPAKFKKAVVIYRNARRDALVAANQYLIDRDAALLQNRLEQTGKEFVIAFNKLDGKSGFIETEEREDLCAAFQVILDAVDSSVNFLGFTMNHDRIWEIMNEHRDW,not soluble
13,YMYKKYDILKGDKSERVLDRRFITNLCMNGVPMGLQYSITAIGSTILQAAVNTLGSTYVAAMTAGSKMFNFTCCPFDALGSTMATYAGQNVGAAKIKRLGQGVR,not soluble
14,MLKVKKEVLEKMIKQAERDYPYETCGLLIGKSEGGIRIAYEAFETPNANPDRKHDRYEIAPKDYMRAEDYAISKGMEIVGVYHSHPDHPDRPSQFDLQRAFPDLSYIIFSVQKGKVASYRSWELKGDKFEEEEVEVFE,not soluble
15,MSLIHSMTAFSRIQKQFDVGDFCWEIRSVNHRYLDVSFRLPESFRFLEAELRTLLRDKIHRGKLECHLKYKDTSCDNRSMLINIGTINALLDLSSKLSASHHLANDMTVSQVLSWPGVVEASLLDMEELSQIALELFQKSIDKLCEVRAGEGRSLKAYVEDRLQALRQEVMKSKSIVVSMSAKTKDKLLTRLHELQMDVPEARVEQEIALLLAKLDVSEELDRLETHIAEVSRTLNAEKVTGRRLDFLMQELNREANTLSSKSDSAELTLCAVEMKVLIEQMREQIQNFEEGHHHHHH,soluble
16,MHHHHHHSSGRENLYFQGGSLLELQKKYHLKGAIGQGSYGVVRVAIENQTRAIRAIKIMNKNKIRQINPKDVERIKTEVRLMKKLHHPNIARLYEVYEDEQYICLVMELCHGGHLLDKLNVFIDDSTGKCAMDVVKTQICPCPECNEEAINGSIHGFRESLDFVQREKLISNIMRQIFSALHYLHNQGICHRDIKPENFLFSTNKSFEIKLVDFGLSKEFYKLNNGEYYGMTTKAGTPYFVAPEVLNTTNESYGPKCDAWSAGVLLHLLLMGAVPFPGVNDADTISQVLNKKLCFENPNYNVLSPLARDLLSNLLNRNVDERFDAMRALQHPWISQFSDKIYKMS,soluble
17,MGGVFSSASSNQAQITGILQELERTRLEREIALAHLQERRRIAFKIAEEREKFNWIACGGSLVVVLSALSSFHHKNLLHVIPIFPMASFIGYKAHFCYGDQLKKISETSTQLLEESVDALVPLPPTIADVRSRSKQIKEEESSNY,not soluble
18,MSFFNPPANSNHGYNDDVNTGYNARMHSKLAEREGFHLGNGSDEPRTLYVGNLDSTVTEDFIATLFNQIGSVTKTKVIFDGSNDPYAFVEFSDHGQASQALQTMNKRLLLDREMKVNWAVEPGQQQSKIDTTRHFHVFVGDLSSEVDNQKLREAFQPFGDVSDAKVIRDTNTTKSKGYGFVSYPKREEAERAIEQMNGQWLGRRTIRTNWATRKPGDQEKPSHYNEKSYDEIYNQTSGDNTSVYVGNIASLTEDEIRQGFASFGRITEVRIFKMQGYAFVKFDNKDAAAKAIVQMNNQDVGGQLVRCSWGKTGDTGKTPGGSYGYGYGNSSSGGNSQPYSGYGGGGAYGGGQGGGGHGGPGQQQSNANSQYWQYYAQYYNNPQLMQQWSNYWQQQGGAPQQQNSGGHQ,not soluble
19,APPKAVLKLEPPWINVLQEDSVTLTCQGARSPESDSIQWFHNGNLIPTHTQPSYRFKANNNDSGEYTCQTGQTSLSDPVHLTVLSEWLVLQTPHLEFQEGETIMLRCHSWKDKPLVKVTFFQNGKSQKFSRLDPTFSIPQANHSHSGDYHCTGNIGYTLFSSKPVTITVQVHHHHHH,soluble
20,MPLTPADVHNVAFSKPPIGKRGYNEDEVDAFLDLVENELTRLIEENSDLRQRINELDQELAAGGGAGVTPQATQAIPAYEPEPGKPAPAAVSAGMNEEQALKAARVLSLAQDTADRLTNTAKAESDKMLADARANAEQILGEARHTADATVAEARQRADAMLADAQSRSEAQLRQAQEKADALQADAERKHSEIMGTINQQRAVLEGRLEQLRTFEREYRTRLKTYLESQLEELGQRGSAAPVDSNADAGGFDQFNRGKN,soluble
21,VTLNTIALELVPPNLEGGKERAIEDARKVVQYSAASGLDGRIRHVMMPGMIAEDDDRPIPMQPKLDVLDFWSIIKPELAGVHGLCTQVTAFMDEPSLHRRLVDLSDAGMEGIVFVGVPRTMQDGEGSGVAPTDALSLYRQLVANRGVIVIPTRDGEQGRLNFKCSRGATYGMTQLLYSDAIVGFLREFARTTEHRPEILLSFGFVPKVETRIGLINWLIQDPGNAAVADEQAFVQKLAGSEPARRRRLMVDLYKRVLDGVADLGFPLSIHLEATYGVSAAAFETFAEMLAYWSPAEPGKPD,not soluble
22,MIVVKVGGAEGINYEAVAKDAASLWKEGVKLLLVHGGSAETNKVAEALGHPPRFLTHPGGQVSRLTDRKTLEIFEMVYCGLVNKRLVELLQKEGANAIGLSGLDGRLFVGRRKTAVKYVENGKVKVHRGDYTGTVEEVNKALLDLLLQAGYLPVLTPPALSYENEAINTDGDQIAALLATLYGAEALVYLSNVPGLLARYPDEASLVREIPVERIEDPEYLALAQGRMKRKVMGAVEAVKGGVKRVVFADGRVENPIRRALSGEGTVVR,soluble
23,MGRVFMVDLEGNIYICKLCKTHLSTDQDIMSKSFQCKNGRAYLFNNVVNVSVGEKEDRMMITGLHNVVDIFCVGCGSNVGWKYEFAHEKSQKYKEGKSVLELYKISGPHDSNDLVSDGDDA,not soluble

# From the DeepSol protein solubility set
